Experimental data as given in PMC5651008, “The Copper Homeostasis Transcription Factor CopR Is Involved in H2O2 Stress in Lactobacillus plantarum CAUH2”.

Target: T1, CopR (CopRHis6) (Lactobacillus plantarum CAUH2, UniProt F9UU50 1-142)
T1 sequence: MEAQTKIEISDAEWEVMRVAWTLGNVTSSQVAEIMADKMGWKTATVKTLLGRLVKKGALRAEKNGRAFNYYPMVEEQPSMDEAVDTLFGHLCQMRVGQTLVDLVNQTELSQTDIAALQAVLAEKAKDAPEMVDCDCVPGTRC
Assay: EMSA; no Cu2+ added; 2.5 ug CopRHis6, 20 fmol probe; 20 uL: 1x LightShift binding buffer, 50 ng/uL poly(dI-dC), 2.5% glycerol, 0.05% NP-40, 5 mM MgCl2, 20 fmol probe, 2.5 ug CopRHis6; pH, salt and temperature not
Conditions: protein: recombinant; tags: C-terminal His6; chain copies: 2; label: 3' biotin; blunt

B1: copB promoter probe (EMSA copB-F/-R) (dsDNA)
DNA 1: GTGTTTTTCTTGACTTTTATCGTCTACAATTGTAAACTTTAGCCATAAATTACAGATGTAGACAAT
DNA 2: ATTGTCTACATCTGTAATTTATGGCTAAAGTTTACAATTGTAGACGATAAAAGTCAAGAAAAACAC
B1: binds.
